The source of these data is CN116724049A (UNIV KOELN; PHILIPPS UNIV T MARBURG, dated 2023).

The labels stand for the following.
B1: MnC2t2p1_C11 (antibody, V domains shown)
VH: QVQLVQSGAEVKKPGSSVKVSCKASGGTFSRYTIIWVRQAPGQGLEWMGRIIPILDIANYAQKFQGRVTITADKSTSTAYMELSSLRSEDTAVYYCAREGGLDYFGSRNSGWTYTWFDPWGQGTLVTVSS
VL: DIQMTQSPSSLSASVGDRVTITCRASQNISSYLNWYQQKPGKAPNLLIYAASSLQSGVPPRFSGSGSGTDFTLTISSLQPEDFATYYCQQSYSTLYSFGQGTKLEIK
B2: MnC4t2p2_A4 (antibody, V domains shown)
VH: QVQLVQSGSELKKPGASVKISCKASGYIFINYAMNWVRQAPGQGLEWMGWINTNTGNPTYAQDFTGRFVFSLDTSLSTAYLQISSLEAEDTAVYYCAKIGSRNSLGVWGQGTLVTVSA
VL: EIVLTQSPGTLSLSPGERATLSCRASHSVDRSYLAWYQQKPGLAPRLLIYGASSRATGIPDRFSGSGSGTDFTLTISRLEPEDFALYYCQHFGTSSVTFGRGTRLEIK
B3: FnC1t2p1_D4 (antibody, V domains shown)
VH: QVQLVQSGSELKKPGASVKVSCKASGYTFLRFAMNWLRQAPGQGLEWMGWIDTNTGTPTYAQGFTGRFVFSLDTSVSTAYLQISSLKAEDTAVYYCARSLRGANLVPWGQGTLVTVSS
VL: DIQMTQSPSSLSASVGDRVTITCQASQDVSNYLNWYQQQPGKAPKLLIYDAFNLETGVPSRFSGSGSGTDFTFTISSLQPEDIATYYCQQYDNLPLTFGGGTKVEIK
B4: FnC1t2p1_G5 (antibody, V domains shown)
VH: B3 VH
VL: B3 VL
B5: MnC4t2p1_B3 (antibody, V domains shown)
VH: EVQLVESGGHLVQPGRSLRLSCAASGFTFDDYAMHWVRQVPGKGLEWVSGISWNGGILDYADSVKGRFTISRDNAKNSLYLHMRSLRTDDTALYYCAKDLRRQDYYADWYFDLWGRGTLVTVSS
VL: DIQMIQSPSSVSASVGDRVTITCRASQGISSWLAWYQQKPGKAPKLLIYAASTLLSAVPSRFSGSGSGTDFTLTISSLQPEDFATYYCQQGNSFPFTFGPGTIVDV
B6: MnC2t1p1_A3 (antibody, V domains shown)
VH: EVQLVESGGGLVQPGGSLRLSCAASGFTVSSNYMSWVRQAPGRGLEWVSVIYSGGSTFYADSVKGRFTISRDNSKNTLYLQMNSLRPEDTAVYYCATGARFGESPFDYWGQGTLVTVSS
VL: DIQMTQSPSSVSASVGDRVTITCRASQGISSWLAWYQQKPGKAPKLLIYAASSLQSGVPSRFSGSGSGTDFTLTISSLQPEDFATYYCQQANSFPGTFGQGTKVEIK

The target of the assay is SARS-CoV-2的刺突(S)蛋白的受体结合结构域(RBD) (SARS-CoV-2, UniProt P0DTC2 319-541).
The molecule B1 had a Kd of 0.02 nM.

Molecule B2 returned a Kd of 14 nM. Against the preceding molecule, the Kd is about 700-fold higher.

On to B3, for which the affinity, expressed as Kd, was 0.2 nM. This Kd is about 70-fold lower than that of the molecule before.

In turn, B4 returned a Kd of 0.1 nM.

Turning to B5, the Kd amounted to 0.09 nM.

Turning to B6, the Kd was 0.7 nM.
